Source: US20170137467A1 (CHROMOTEK, published 2017)
Numbering of substitutions follows the chain as printed. One block for each binder: values may come before it.

Tests used:
Experiment in all cases: positional peptide library pulldown on immobilised Nb, LC-MS of supernatant; signal ratio to control GFP-Nb (1 = not captured, near 0 = captured)
BC2T P1Y = biological target: T1, BC2T P1Y
T1 construct: positional scanning library member
T1 peptide: Ac-YDRKAAVSHWQQ-NH2
Procedure, shortened: (§1)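 Unbound peptide left in supernatant after 1 h pulldown in PBS/0.01% CHAPS measured by reversed-phase LC-MS (8–30% eluent B gradient, 20 min).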

BC2T V7R = biological target: T2, BC2T V7R
T2 construct: positional scanning library member
T2 peptide: Ac-PDRKAARSHWQQ-NH2
Procedure, shortened: as §1

BC2T V7N = biological target: T3, BC2T V7N
T3 construct: positional scanning library member
T3 peptide: Ac-PDRKAANSHWQQ-NH2
Procedure, shortened: as §1

BC2T D2K = biological target: T4, BC2T D2K
T4 construct: positional scanning library member
T4 peptide: Ac-PKRKAAVSHWQQ-NH2
Procedure, shortened: as §1

BC2T P1T = biological target: T5, BC2T P1T
T5 construct: positional scanning library member
T5 peptide: Ac-TDRKAAVSHWQQ-NH2
Procedure, shortened: as §1

BC2T V7K = biological target: T6, BC2T V7K
T6 construct: positional scanning library member
T6 peptide: Ac-PDRKAAKSHWQQ-NH2
Procedure, shortened: as §1

BC2T R3E = biological target: T7, BC2T R3E
T7 construct: positional scanning library member
T7 peptide: Ac-PDEKAAVSHWQQ-NH2
Procedure, shortened: as §1

BC2T R3P = biological target: T8, BC2T R3P
T8 construct: positional scanning library member
T8 peptide: Ac-PDPKAAVSHWQQ-NH2
Procedure, shortened: as §1

BC2T H9D = biological target: T9, BC2T H9D
T9 construct: positional scanning library member
T9 peptide: Ac-PDRKAAVSDWQQ-NH2
Procedure, shortened: as §1

BC2T W10E = biological target: T10, BC2T W10E
T10 construct: positional scanning library member
T10 peptide: Ac-PDRKAAVSHEQQ-NH2
Procedure, shortened: as §1

BC2T Q11D = biological target: T11, BC2T Q11D
T11 construct: positional scanning library member
T11 peptide: Ac-PDRKAAVSHWDQ-NH2
Procedure, shortened: as §1

ratio (BC2T P1Y): 0.2
ratio (BC2T V7R): 0.1
ratio (BC2T V7N): 0.4
ratio (BC2T D2K): 0.1
ratio (BC2T P1T): 0.6
ratio (BC2T V7K): 0.1
ratio (BC2T R3E): 1
ratio (BC2T R3P): 1
B1: BC2-NbR106E (VHH)
VHH: QVQLVESGGGLVQPGGSLTLSCTASGFTLDHYDIGWFRQAPGKEREGVSCINNSDDDTYYADSVKGRFTIFMDNAKDTVYLQMNSLKPEDTAIYYCAEARGCKRGEYEYDFWGQGTQVTVSS
notes: headlock mutant of BC2-Nb; immobilised on beads in this assay

B2: BC2 nanobody (VHH)
VHH: B1 VHH with E106R
notes: immobilised on beads in this assay; also called BC2-Nb; BC2 nanotrap (immobilised)
ratio (BC2T H9D): 0.1
ratio (BC2T W10E): 1.1
ratio (BC2T Q11D): 0.2
